Test results published in patent publication US20160368979A1 (CHEMOMAB, published 2016).

Assays:
[1] = target: T1, RANTES (CCL5), human (human, UniProt P13501 24-91); assay: cell-based or functional assay
T1 sequence: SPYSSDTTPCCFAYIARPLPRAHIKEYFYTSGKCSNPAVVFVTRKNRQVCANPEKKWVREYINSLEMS

[2] = target: Eotaxin 1 (CCL11), human (human, UniProt P51671 24-97); assay: cell-based or functional assay
[3] = target: T2, Eotaxin 2 (CCL24), human (human, UniProt O00175 27-119); assay: cell-based or functional assay
T2 sequence: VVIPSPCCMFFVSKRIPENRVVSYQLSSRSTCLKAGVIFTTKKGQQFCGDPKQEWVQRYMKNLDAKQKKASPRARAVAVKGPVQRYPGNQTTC

[4] = target: T2, Eotaxin 2 (CCL24), human; assay: Biacore SPR (eotaxin 2 immobilised on CM-5 chip) and ELISA
Procedure: The affinity constant of hCM101 or murine CM101 was evaluated using Biacore T100. This method uses Surface Plasmon Resonance (SPR) electrooptical phenomenon to measure the binding constants and on/off rates between binding partners. Eotaxin 2 was covalently immobilized on a surface of a CM-5 chip, and a solution of CM101 was passed over the surface. The changes in SPR angle were measured and enabled to determine the KD.

migration of CD14 negative cells towards Eotaxin 1, 2 and Rantes, % reduction at the high dose [1]: ~90%
migration of CD14 negative cells towards Eotaxin 1, 2 and Rantes, % reduction at the high dose [2]: ~90%
migration of CD14 negative cells towards Eotaxin 1, 2 and Rantes, % reduction at the high dose [3]: ~90%
Kd [4]: 3 nM
B1: hCM101 (fully humanized anti-eotaxin-2 monoclonal antibody, humanized variant VH1/VK3) (antibody, human IgG1, V domains shown)
VH: QIQLVQSGPELKKPGASVKVSCRASGYPFTNSGMNWVKQAPGKGLKWMGWINTYNGEPTYTDDFKGRFAFSLETSASTAYLQINNLRNEDTATYFCASHSYGSSYAMDNWGQGTSVTVSS
VL: DIVLTQSPDSLAVSLGERATINCKASQSVDYDGDSYMNWYQQKPGQPPKLLIYVASNLKSGIPARFSGSGSGTDFTLTISSLQPEDFATYYCQQSNEEPWTFGGGTKVEIK
notes: also called VH1/K3; fully humanized CM101
